Experimental data reported in patent US20230301998A1 (SANFORD BURNHAM PREBYS MEDICAL DISCOVERY INSTITUTE, published 2023).

Key:
Assay in all cases: Flag IP of Flag-SHARPIN from WM115 lysate, on-bead tryptic digestion, LC/MS-MS
DYNC1H1 = target: T1, DYNC1H1 (human, UniProt Q14204 2-4646)
T1 construct: endogenous protein co-purified from WM115 lysate
In short: (§1)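 WM115 cells transfected with Flag-SHARPIN or empty plasmid; lysed in 1% Triton X-100 buffer (50 mM Tris-HCl pH7.4, 150 mM NaCl, 1 mM EDTA). Lysates pre-cleared 1 h at 4° C, immunoprecipitated on FLAG-M2 agarose overnight at 4° C, washed, then digested with trypsin on-bead for mass spectrometry.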

ATP5B = target: T2, ATP5B (human, UniProt P06576 48-529)
T2 construct: endogenous protein co-purified from WM115 lysate
In short: as §1

FASN = target: T3, FASN (human, UniProt P49327 1-2511)
T3 construct: endogenous protein co-purified from WM115 lysate
In short: as §1

Measured: binding result

T2 sequence (P06576 48-529 limits assumed): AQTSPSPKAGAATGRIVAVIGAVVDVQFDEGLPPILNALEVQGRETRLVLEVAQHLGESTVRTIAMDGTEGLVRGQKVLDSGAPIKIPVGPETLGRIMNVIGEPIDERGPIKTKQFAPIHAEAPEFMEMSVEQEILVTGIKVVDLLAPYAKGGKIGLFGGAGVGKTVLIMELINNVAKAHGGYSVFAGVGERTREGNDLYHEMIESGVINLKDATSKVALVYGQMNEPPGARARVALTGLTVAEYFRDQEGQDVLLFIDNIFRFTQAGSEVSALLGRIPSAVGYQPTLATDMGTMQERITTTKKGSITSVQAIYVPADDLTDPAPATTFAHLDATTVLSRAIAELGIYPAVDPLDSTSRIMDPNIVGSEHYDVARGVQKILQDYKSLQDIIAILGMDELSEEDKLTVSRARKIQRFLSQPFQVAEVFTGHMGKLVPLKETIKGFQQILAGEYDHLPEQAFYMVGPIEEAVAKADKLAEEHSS
T3 sequence (P49327 whole entry): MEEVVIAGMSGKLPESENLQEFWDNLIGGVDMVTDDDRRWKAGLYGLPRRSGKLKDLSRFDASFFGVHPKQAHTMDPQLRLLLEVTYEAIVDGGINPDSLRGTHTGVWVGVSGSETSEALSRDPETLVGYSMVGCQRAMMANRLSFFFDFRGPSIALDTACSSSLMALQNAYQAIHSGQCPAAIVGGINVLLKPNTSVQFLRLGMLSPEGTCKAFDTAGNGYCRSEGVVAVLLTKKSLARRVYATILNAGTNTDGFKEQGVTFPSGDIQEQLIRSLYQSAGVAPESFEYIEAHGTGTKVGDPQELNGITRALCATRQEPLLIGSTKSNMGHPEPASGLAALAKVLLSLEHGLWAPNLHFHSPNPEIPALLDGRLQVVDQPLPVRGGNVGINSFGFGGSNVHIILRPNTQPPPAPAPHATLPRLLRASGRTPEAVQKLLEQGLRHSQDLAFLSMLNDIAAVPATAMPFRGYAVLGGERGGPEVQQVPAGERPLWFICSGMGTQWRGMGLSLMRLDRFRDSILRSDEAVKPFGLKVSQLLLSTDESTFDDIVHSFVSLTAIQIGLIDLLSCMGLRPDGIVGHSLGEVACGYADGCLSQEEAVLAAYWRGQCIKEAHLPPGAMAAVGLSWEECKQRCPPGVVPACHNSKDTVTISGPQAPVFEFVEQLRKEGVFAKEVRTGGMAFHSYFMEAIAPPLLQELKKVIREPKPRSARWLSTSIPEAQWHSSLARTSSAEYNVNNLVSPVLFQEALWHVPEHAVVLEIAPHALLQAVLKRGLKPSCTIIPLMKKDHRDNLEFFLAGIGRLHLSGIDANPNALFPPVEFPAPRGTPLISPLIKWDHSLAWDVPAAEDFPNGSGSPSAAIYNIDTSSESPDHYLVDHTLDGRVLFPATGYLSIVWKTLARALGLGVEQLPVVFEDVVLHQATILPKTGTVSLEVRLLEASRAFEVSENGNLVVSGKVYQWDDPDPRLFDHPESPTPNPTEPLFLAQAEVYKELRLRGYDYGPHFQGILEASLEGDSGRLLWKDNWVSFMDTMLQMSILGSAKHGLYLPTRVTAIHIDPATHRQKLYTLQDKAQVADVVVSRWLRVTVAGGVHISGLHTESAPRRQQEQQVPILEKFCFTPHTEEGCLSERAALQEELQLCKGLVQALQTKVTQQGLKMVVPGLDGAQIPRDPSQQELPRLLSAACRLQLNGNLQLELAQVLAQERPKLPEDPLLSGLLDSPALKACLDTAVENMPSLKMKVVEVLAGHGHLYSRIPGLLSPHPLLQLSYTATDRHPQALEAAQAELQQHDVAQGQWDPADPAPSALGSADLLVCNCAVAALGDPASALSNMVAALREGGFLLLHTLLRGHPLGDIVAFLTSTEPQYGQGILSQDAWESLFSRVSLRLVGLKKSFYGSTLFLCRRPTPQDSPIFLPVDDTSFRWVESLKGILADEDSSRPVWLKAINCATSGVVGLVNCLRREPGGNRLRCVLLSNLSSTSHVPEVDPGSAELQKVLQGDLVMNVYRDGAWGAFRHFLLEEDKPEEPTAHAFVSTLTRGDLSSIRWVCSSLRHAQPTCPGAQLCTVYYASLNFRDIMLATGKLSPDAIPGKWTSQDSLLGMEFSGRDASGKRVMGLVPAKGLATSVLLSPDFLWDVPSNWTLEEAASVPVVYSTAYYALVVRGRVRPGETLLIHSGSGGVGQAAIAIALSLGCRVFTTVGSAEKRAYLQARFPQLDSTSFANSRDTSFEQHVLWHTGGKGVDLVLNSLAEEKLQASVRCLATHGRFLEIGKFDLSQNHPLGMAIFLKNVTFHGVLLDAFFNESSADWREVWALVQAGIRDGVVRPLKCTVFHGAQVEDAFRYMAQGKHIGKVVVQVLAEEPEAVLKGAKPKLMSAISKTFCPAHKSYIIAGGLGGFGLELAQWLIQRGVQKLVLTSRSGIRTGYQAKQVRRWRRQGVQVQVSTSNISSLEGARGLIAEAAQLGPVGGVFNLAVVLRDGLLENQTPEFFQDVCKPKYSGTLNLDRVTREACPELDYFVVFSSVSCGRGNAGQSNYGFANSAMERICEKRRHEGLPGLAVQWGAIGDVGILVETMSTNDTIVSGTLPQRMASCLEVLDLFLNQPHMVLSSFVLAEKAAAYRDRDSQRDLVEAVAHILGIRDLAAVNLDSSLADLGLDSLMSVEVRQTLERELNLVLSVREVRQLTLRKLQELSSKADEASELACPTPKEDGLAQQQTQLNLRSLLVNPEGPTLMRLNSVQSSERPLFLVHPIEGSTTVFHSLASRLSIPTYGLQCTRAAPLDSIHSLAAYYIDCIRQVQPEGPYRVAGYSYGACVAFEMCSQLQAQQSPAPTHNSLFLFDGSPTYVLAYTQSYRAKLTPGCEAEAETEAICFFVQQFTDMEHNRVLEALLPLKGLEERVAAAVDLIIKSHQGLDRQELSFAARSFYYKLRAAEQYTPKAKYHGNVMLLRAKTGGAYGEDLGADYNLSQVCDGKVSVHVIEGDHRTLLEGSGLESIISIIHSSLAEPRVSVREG

B1: Flag-tagged SHARPIN (other, human, UniProt Q9H0F6 1-387, looked up)
chain: MAPPAGGAAAAASDLGSAAVLLAVHAAVRPLGAGPDAEAQLRRLQLSADPERPGRFRLELLGAGPGAVNLEWPLESVSYTIRGPTQHELQPPPGGPGTLSLHFLNPQEAQRWAVLVRGATVEGQNGSKSNSPPALGPEACPVSLPSPPEASTLKGPPPEADLPRSPGNLTEREELAGSLARAIAGGDEKGAAQVAAVLAQHRVALSVQLQEACFPPGPIRLQVTLEDAASAASAASSAHVALQVHPHCTVAALQEQVFSELGFPPAVQRWVIGRCLCVPERSLASYGVRQDGDPAFLYLLSAPREAPATGPSPQHPQKMDGELGRLFPPSLGLPPGPQPAASSLPSPLQPSWSCPSCTFINAPDRPGCEMCSTQRPCTWDPLAAAST
notes: also called Flag-SHARPIN; not shown: FLAG tag
binds: DYNC1H1 | ATP5B | FASN
